Assay results reported in US20210054067A1 (ALETHIA BIOTHERAPEUTICS, published 2021).
Residue numbers refer to the chain shown, from its start.

Key:
[1] = target: T1, recombinant human KAAG1 (purified protein) (human, UniProt Q9UBP8 1-84, limits assumed); assay: SPR as above; KD relative to LcHc
T1 construct: also called gel filtration purified KAAG1
T1 sequence: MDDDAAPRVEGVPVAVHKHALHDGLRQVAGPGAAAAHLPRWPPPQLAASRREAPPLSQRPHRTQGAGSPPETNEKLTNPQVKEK
Procedure: Immediately after the activation, a 13 μg/mL solution of anti-human IgG Fc fragment specific in 10 mM NaOAc pH 4.5 was injected in the analyte direction at a flow rate of 25 μL/min until approximately 8000 resonance units (RUs) were immobilized. Remaining active groups were quenched by a 300 s injection of 1M ethanolamine at 30 μL/min in the analyte direction, and this also ensures mock-activated interspots are created for blank referencing. The screening of the 3A4 variants for binding to KAAG1 occurred in two steps: an indirect capture of 3A4 variants from cell supernatant onto the anti-human IgG Fc fragment specific surface in the ligand direction (vertical) followed by a KAAG1 injection in the analyte direction. Firstly, one buffer injection for 30 s at 100 uL/min in the ligand direction was used to stabilize the baseline. […] Four to five 3A4 variants along with wild-type 3A4 were simultaneously injected in individual ligand channels for 240 s at flow 25 μL/min. […] The first ligand channel was left empty to use as a blank control if required. This 3A4 capture step was immediately followed by two buffer injections in the analyte direction to stabilize the baseline, and then the gel filtration purified KAAG1 was injected. For a typical screen, five KAAG1 concentrations (8, 2.66, 0.89, 0.29, and 0.098 nM) and buffer control were simultaneously injected in individual analyte channels at 50 μL/min for 120 s with a 600 s dissociation phase, resulting in a set of binding sensorgrams with a buffer reference for each of the captured 3A4 variants. The anti-human IgG Fc fragment specific—3A4 complexes were regenerated by a 18 s pulse of 0.85% phosphoric acid for 18 s at 100 μL/min to prepare the anti-human IgG Fc fragment specific surface for the next injection cycle.
(§1) Sensorgrams were aligned and double-referenced using the buffer blank injection and interspots, and the resulting sensorgrams were analyzed using ProteOn Manager software v3.0.

[2] = target: T1, recombinant human KAAG1 (purified …); assay: SPR (ProteOn XPR36)
Procedure: (§2) Remaining active groups were quenched by a 300 s injection of 1M ethanolamine at 30 μL/min in the analyte direction, and this also ensures mock-activated interspots are created for blank referencing. The screening of the 3A4 variants for binding to KAAG1 occurred in two steps: an indirect capture of 3A4 variants from cell supernatant onto the anti-human IgG Fc fragment specific surface in the ligand direction (vertical) followed by a KAAG1 injection in the analyte direction. Firstly, one buffer injection for 30 s at 100 uL/min in the ligand direction was used to stabilize the baseline. […] Four to five 3A4 variants along with wild-type 3A4 were simultaneously injected in individual ligand channels for 240 s at flow 25 μL/min. […] The first ligand channel was left empty to use as a blank control if required. […]
Sensorgrams were aligned and double-referenced using the buffer blank injection and interspots, and the resulting sensorgrams were analyzed using ProteOn Manager software v3.0. The kinetic and affinity values were determined by fitting the referenced sensorgrams to the 1:1 Langmuir binding model using local Rₘₐₓ, and affinity constants (KD M) were derived from the resulting rate constants (kd s⁻¹/kₐ M⁻¹s⁻¹).

[3] = target: T1, recombinant human KAAG1 (purified …); assay: surface plasmon resonance (told in the summary)
[4] = target: T1, recombinant human KAAG1 (purified …); assay: SPR (ProteOn XPR36), antibody captured on anti-human IgG Fc, KAAG1 as analyte, 25 C; parent LcHc (chimeric 3A4)
Procedure: as §2, with “Immediately after the activation, a 13 μg/mL solution of anti-human IgG Fc fragment specific in 10 mM NaOAc pH 4.5 was injected in the analyte direction at a flow rate of 25 μL/min until approximately 8000 resonance units (RUs) were immobilized. Remaining” for “Remaining”
as §1

[5] = target: T2, Fc-KAAG1 truncated mutant ending at amino acid 35 of KAAG1 (human, not fully specified; biotinylated); assay: ELISA: biotinylated Fc-KAAG1 1-35 on streptavidin plate, OD450
T2 construct: also called KAAG1 truncated Fc-fusion (1-35); not shown: Fc part from vector pYD5
T2 chain: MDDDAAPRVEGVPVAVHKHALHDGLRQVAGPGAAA
Procedure: (§3) The expression and purification of human recombinant KAAG1 as an Fc fusion protein is found in PCT/CA2009/001586. To carry out the binding of Fc-KAAG1 to the antibody preparation, the Fc-KAAG1 was biotinylated with NHS-biotin (Pierce, Rockford, Ill.) and 10 ng/well was coated in a streptavidin 96-well plate for 1 h at room temperature. Purified chimeric 3A4 was added at increasing concentrations and incubated at room temperature for 30 minutes. Bound antibody was detected with HRP-conjugated human anti-kappa light chain antibody in the presence of TMB liquid substrate (Sigma-Aldrich Canada Ltd., Oakville, ON) and readings were conducted at 450 nm in microtiter plate reader. […] When the control unrelated IgG was incubated with the recombinant KAAG1, no binding activity was observed, even at the very highest concentration. […] The binding of 3A4 was compared to the binding of the chimeric 3D3 (described in Tremblay and Filion (2009)), that has different epitope specificity (see Example 2). The binding activity of 3A4 is very similar to 3D3 in this type of assay (see FIG. 1).
(§4) Based on the teachings of Tremblay and Filion (2009), it was known that other antibodies interacted with specific regions of recombinant KAAG1. Thus, anti-KAAG1 antibody 3C4, 3D3, and 3G10 interacted with the regions 1-35, 36-60, and 61-84 of KAAG1, respectively. […]

[6] = target: T3, KAAG1 on the surface of cancer cells (SKOV-3, TOV-21G ovarian cancer cells) (human, UniProt Q9UBP8 31-84); assay: flow cytometry on KAAG1-expressing cancer cells (told in the summary)
T3 construct: endogenous KAAG1 of human cancer cell lines; Also used for the Triton X-100 permeabilized SKOV-3 cells (named in the assay field); also called KAAG1 antigen; cell surface KAAG1
T3 sequence: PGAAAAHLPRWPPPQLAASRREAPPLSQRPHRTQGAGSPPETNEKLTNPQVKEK

[7] = target: T4, Fc-KAAG1 truncated mutant ending at amino acid 60 of KAAG1 (human, UniProt Q9UBP8 1-60, biotinylated); assay: ELISA: biotinylated Fc-KAAG1 1-60 on streptavidin plate, OD450
T4 construct: also called KAAG1 truncated Fc-fusion (1-60); not shown: Fc part from vector pYD5
T4 sequence: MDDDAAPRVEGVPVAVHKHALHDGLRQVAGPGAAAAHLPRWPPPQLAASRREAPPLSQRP
Procedure: as §3, §4

[8] = target: T1, recombinant human KAAG1 (purified …); assay: surface plasmon resonance (told in the summary); summary statement; form of 3A4 and SPR set-up not stated

B1: humanized 3A4 antibody Lh1Hh2 (antibody, human IgG1, kappa, V domains shown)
VH: QIQLVQSGAEVKKPGASVKVSCKASGYTFTDDYMSWVRQAPGQGLEWMGDINPYNGDTNYNQKFKGRVTITADKSTSTAYMELSSLRSEDTAVYYCARDPGAMDYWGQGTLVTVSS
VL: DIVMTQTPLSLPVTPGEPASISCRSSQSLLHSNGNTYLEWYLQKPGQSPQLLIYTVSNRFSGVPDRFSGSGSGTDFTLKISRVEAEDVGVYYCFQGSHVPLTFGQGTKLEIKR
notes: human IgG1 kappa
Question: With B1 as the binder, how does the Fold diff. [1] read?
Answer: Its Fold diff. is 13.2 fold.

B2: humanized 3A4 antibody Lh2Hh2 (antibody, human IgG1, kappa, V domains shown)
VH: B1 VH
VL: B1 VL with I2V, Q50K
notes: human IgG1 kappa
Question: Which Fold diff. [1] does the source give for B2 here?
Answer: The Fold diff. was 15.3 fold.

B3: humanized 3A4 antibody Lh1Hh4 (antibody, human IgG1, kappa, V domains shown)
VH: B1 VH with R38K, M48I, R67K, V68A, I70L, A72V
VL: B1 VL
notes: human IgG1 kappa
Question: B3 was tested. Which Fold diff. [1] did it give?
Answer: The Fold diff. was 9.3 fold.

B4: humanized 3A4 antibody Lh2Hh3 (antibody, human IgG1, kappa, V domains shown)
VH: B1 VH with M48I, V68A, I70L, A72V
VL: B1 VL with I2V, Q50K
notes: human IgG1 kappa
Question: How did the Fold diff. [1] turn out when B4 was run?
Answer: The Fold diff. was 14.3 fold.

B5: humanized 3A4 antibody Lh1Hh3 (antibody, human IgG1, kappa, V domains shown)
VH: B1 VH with M48I, V68A, I70L, A72V
VL: B1 VL
notes: human IgG1 kappa
Question: For B5, which Fold diff. [1] is on record?
Answer: The Fold diff. was 9.3 fold.

B6: humanized 3A4 antibody Lh1Hh1 (antibody, human IgG1, kappa, V domains shown)
VH: B1 VH with I2V, K74T
VL: B1 VL
notes: 100% humanized frameworks; human IgG1 kappa; also called H1L1
Question: For B6, which “fold difference in binding affinity against the best variant H4L2” value [2] is on record?
Answer: The value was 4 fold.

Question: What about the Fold diff. [1] of the same binder?
Answer: The Fold diff. was 29.6 fold.

B7: humanized 3A4 antibody Lh2Hh1 (antibody, human IgG1, kappa, V domains shown)
VH: B1 VH with I2V, K74T
VL: B1 VL with I2V, Q50K
notes: human IgG1 kappa
Question: For B7, which Fold diff. [1] is on record?
Answer: The Fold diff. was 21.3 fold.

B8: humanized 3A4 antibody Lh2Hh4 (antibody, human IgG1, kappa, V domains shown)
VH: B1 VH with R38K, M48I, R67K, V68A, I70L, A72V
VL: B1 VL with I2V, Q50K
notes: human IgG1 kappa; 10 mouse framework residues retained; also called H4L2
Question: For B8, which Fold diff. [1] is on record?
Answer: The Fold diff. was 6.4 fold.

B9: 3D3 anti-KAAG1 antibody (chimeric 3D3) (antibody, V domains shown)
VH: EVQLQQSVAELVRPGASVTLSCKASGYIFTDYEIHWVKQTPVHGLEWIGVIDPETGNTAFNQKFKGKATLTADISSSTAYMELSSLTSEDSAVYYCMGYSDYWGQGTTLTVSS
VL: DIVMTQSPSSLAVSIGQKVTMNCKSSQSLLNSNFQKNFLAWYQQKPGQSPKLLIYFASTRESSIPDRFIGSGSGTDFTLTISSVQAEDLADYFCQQHYSTPLTFGAGTKLELK
Question: Which Kd [3] does the source give for B9 here?
Answer: Its Kd is > 200000 pM.

Question: And the “fold lower affinity than 3A4” value [3]?
Answer: The value was 20 fold.

B10: 3G10 anti-KAAG1 antibody (antibody, V domains shown)
VH: EIQLQQSGPELVKPGASVKISCKASGYTFTDNYMNWVKQSHGKSLEWIGDINPYYGTTTYNQKFKGKATLTVDKSSRTAYMELRGLTSEDSAVYYCARDDWFDYWGQGTLVTVSA
VL: DVLMTQTPRSLSVSLGDQASISCRSSQSLLHSNGNTYLEWYLQKPGQPPKVLIYKVSNRFSGVPDRFSGSGSGTDFTLKISGVEAEDLGVYYCFQGSHVPLTFGAGTKLELK
Question: What does the source list for B10?
Answer: Kd [3]: > 200000 pM; fold lower affinity than 3A4 [3]: 20 fold

B11: 3A4 chimeric anti-KAAG1 antibody (mouse-human chimeric IgG1) (antibody, V domains shown)
VH: QIQLVQSGPEMVKPGASVKMSCKASGYTFTDDYMSWVKQSHGKSLEWIGDINPYNGDTNYNQKFKGKAILTVDKSSSTAYMQLNSLTSEDSAVYYCARDPGAMDYWGQGTSVTVSS
VL: DVVMTQTPLSLAVSLGDQASISCRSSQSLLHSNGNTYLEWYLQKPGQSPKLLIHTVSNRFSGVPDRFSGSGSGTDFTLKISRVEAEDLGVYYCFQGSHVPLTFGAGTRLELKR
notes: also called chimeric 3A4; murine 3A4
Question: Which results are given for B11?
Answer: Kd [4]: 57 pM; binding result [5]: no binding (tested: not given on the sheet); fold less antibody required compared to 3G10 [6]: ~10 fold; binding result [7]: no binding (tested: not given on the sheet); Kd [8]: ~57 pM
